Results as given in US20240319212A1 (IMMUNDIAGNOSTIK, published 2024).
Values belong to the binder of their own block, whether it stands above or below them.

B2: vitamin D binding protein (DBP) alone, without added vitamin D metabolite (ligand, human, UniProt P02774 17-474, looked up)
chain: LERGRDYEKNKVCKEFSHLGKEDFTSLSLVLYSRKFPSGTFEQVSQLVKEVVSLTEACCAEGADPDCYDTRTSALSAKSCESNSPFPVHPGTAECCTKEGLERKLCMAALKHQPQEFPTYVEPTNDEICEAFRKDPKEYANQFMWEYSTNYGQAPLSLLVSYTKSYLSMVGSCCTSASPTVCFLKERLQLKHLSLLTTLSNRVCSQYAAYGEKKSRLSNLIKLAQKVPTADLEDVLPLAEDITNILSKCCESASEDCMAKELPEHTVKLCDNLSTKNSKFEDCCQEKTAMDVFVCTYFMPAAQLPELPDVELPTNKDVCDPGNTKVMDKYTFELSRRTHLPEVFLSKVLEPTLKSLGECCDVEDSTTCFNAKGPLLKKELSSFIDKGQELCADYSENTFTEYKKKLAERLKAKLPDATPTELAKLVNKHSDFASNCCSINSPPLYCDSEIDAELKNIL
notes: also called apoprotein DBP; non-complexed DBP
B3: complex of vitamin D binding protein with 25-hydroxyvitamin D3 (DBP:25(OH)D3) (ligand, human, UniProt P02774 17-474, looked up)
chain: LERGRDYEKNKVCKEFSHLGKEDFTSLSLVLYSRKFPSGTFEQVSQLVKEVVSLTEACCAEGADPDCYDTRTSALSAKSCESNSPFPVHPGTAECCTKEGLERKLCMAALKHQPQEFPTYVEPTNDEICEAFRKDPKEYANQFMWEYSTNYGQAPLSLLVSYTKSYLSMVGSCCTSASPTVCFLKERLQLKHLSLLTTLSNRVCSQYAAYGEKKSRLSNLIKLAQKVPTADLEDVLPLAEDITNILSKCCESASEDCMAKELPEHTVKLCDNLSTKNSKFEDCCQEKTAMDVFVCTYFMPAAQLPELPDVELPTNKDVCDPGNTKVMDKYTFELSRRTHLPEVFLSKVLEPTLKSLGECCDVEDSTTCFNAKGPLLKKELSSFIDKGQELCADYSENTFTEYKKKLAERLKAKLPDATPTELAKLVNKHSDFASNCCSINSPPLYCDSEIDAELKNIL
notes: Same protein as m4, occupied by the small molecule 25(OH)D3; Both are treated as this one entry; also called DBP:VD3; DBP/VD3
B5: soluble recombinant megalin M2 fragment (amino acids 1024-1429 of human LRP2/megalin, C-terminal 6x His tag) (receptor)
chain: EQCGLFSFPCKNGRCVPNYYLCDGVDDCHDNSDEQLCGTLNNTCSSSAFTCGHGECIPAHWRCDKRNDCVDGSDEHNCPTHAPASCLDTQYTCDNHQCISKNWVCDTDNDCGDGSDEKNCNSTETCQPSQFNCPNHRCIDLSFVCDGDKDCVDGSDEVGCVLNCTASQFKCASGDKCIGVTNRCDGVFDCSDNSDEAGCPTRPPGMCHSDEFQCQEDGICIPNFWECDGHPDCLYGSDEHNACVPKTCPSSYFHCDNGNCIHRAWLCDRDNDCGDMSDEKDCPTQPFRCPSWQWQCLGHNICVNLSVVCDGIFDCPNGTDESPLCNGNSCSDFNGGCTHECVQEPFGAKCLCPLGFLLANDSKTCEDIDECDILGSCSQHCYNMRGSFRCSCDTGYMLESDGRTCKHHHHHH
notes: Expressed in and secreted by HEK cells, with the signal peptide removed; It tends to dimerise and is the fragment most easily dissociated to monomer; also called E1024-K1429

How the values were obtained:
[1] = target: B5; assay: microscale thermophoresis; NT-647-labelled DBP mixed with 1,25(OH)VD3; purified megalin M2 titrated (set-up as in paragraph 103)
[2] = target: T1, soluble recombinant megalin M3 fragment (amino acids 2698 to 3192 of human LRP2/megalin, C-terminal 6x His … (human, UniProt P98164 2698-3192)); assay: co-immunoprecipitation with lysate of HEK cells expressing M3; pull-down with anti-His antibody beads; Western blot with anti-DBP antibody
T1 construct: Expressed in HEK 293 cells and secreted, with the signal peptide removed; It tends to dimerise; also called E2698-R3192
T1 sequence: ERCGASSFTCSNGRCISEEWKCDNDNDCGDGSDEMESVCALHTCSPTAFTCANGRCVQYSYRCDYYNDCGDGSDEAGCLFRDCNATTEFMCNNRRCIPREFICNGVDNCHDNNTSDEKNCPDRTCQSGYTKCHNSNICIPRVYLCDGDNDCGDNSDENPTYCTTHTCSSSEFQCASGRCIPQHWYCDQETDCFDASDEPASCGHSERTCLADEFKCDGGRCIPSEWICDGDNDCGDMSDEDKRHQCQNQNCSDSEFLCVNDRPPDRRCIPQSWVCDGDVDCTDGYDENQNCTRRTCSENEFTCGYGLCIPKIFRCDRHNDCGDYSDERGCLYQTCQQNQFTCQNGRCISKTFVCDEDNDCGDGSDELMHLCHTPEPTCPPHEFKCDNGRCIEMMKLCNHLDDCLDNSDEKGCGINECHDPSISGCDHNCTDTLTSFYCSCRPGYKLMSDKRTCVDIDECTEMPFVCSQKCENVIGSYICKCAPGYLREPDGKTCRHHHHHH

[3] = target: B5; assay: peptide array of megalin M2 region; major binding epitopes of megalin ligands
[4] = target: B3; assay: MST, NT-647-labelled DBP (50 nM) with VD3 (50 nM), megalin fragment titrated
Human C1q = Human C1q (human, UniProt P02745 23-245; P02746 28-253; P02747 29-245); assay: peptide array of megalin M2 region; major binding epitopes of megalin ligands
Human Albumin-His-tag = target: T2, Human Albumin-His-tag (human, UniProt P02768 25-609); assay: as above
T2 construct: not shown: His-tag

[5] = target: T3, complex of vitamin D binding protein with 24,25-dihydroxyvitamin D (DBP-24,25VD) (human, UniProt P02774 17-474); assay: MST, NT-647-labelled DBP (50 nM) mixed with 24,25VD (37.8 nM), megalin M2 titrated
T3 construct: Same protein as m4; 50 nM NT-647-labelled DBP was mixed with 37.8 nM metabolite; also called DBP:24,25(OH)VD
T3 sequence (looked up): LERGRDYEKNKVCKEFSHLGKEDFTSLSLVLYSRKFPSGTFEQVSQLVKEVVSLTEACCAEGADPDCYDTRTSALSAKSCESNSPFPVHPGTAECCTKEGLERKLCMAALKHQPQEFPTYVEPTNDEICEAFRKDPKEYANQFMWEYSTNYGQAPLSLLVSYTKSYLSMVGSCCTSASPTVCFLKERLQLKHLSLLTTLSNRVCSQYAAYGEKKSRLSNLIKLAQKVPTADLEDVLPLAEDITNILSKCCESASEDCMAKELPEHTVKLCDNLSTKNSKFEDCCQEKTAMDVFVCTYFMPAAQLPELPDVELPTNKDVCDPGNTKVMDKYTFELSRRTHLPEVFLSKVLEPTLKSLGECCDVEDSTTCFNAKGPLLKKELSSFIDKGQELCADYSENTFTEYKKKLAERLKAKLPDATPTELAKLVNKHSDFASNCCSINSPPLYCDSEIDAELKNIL

[6] = target: T4, complex of vitamin D binding protein with 25-hydroxyvitamin D2 (DBP:25(OH)VD2) (human, UniProt P02774 17-474); assay: MST, NT-647-labelled DBP (50 nM) mixed with 25(OH)VD2 (37.8 nM), megalin M2 titrated
T4 construct: Same protein as m4; 50 nM NT-647-labelled DBP was mixed with 37.8 nM metabolite; also called DBP-VD2
T4 sequence (looked up): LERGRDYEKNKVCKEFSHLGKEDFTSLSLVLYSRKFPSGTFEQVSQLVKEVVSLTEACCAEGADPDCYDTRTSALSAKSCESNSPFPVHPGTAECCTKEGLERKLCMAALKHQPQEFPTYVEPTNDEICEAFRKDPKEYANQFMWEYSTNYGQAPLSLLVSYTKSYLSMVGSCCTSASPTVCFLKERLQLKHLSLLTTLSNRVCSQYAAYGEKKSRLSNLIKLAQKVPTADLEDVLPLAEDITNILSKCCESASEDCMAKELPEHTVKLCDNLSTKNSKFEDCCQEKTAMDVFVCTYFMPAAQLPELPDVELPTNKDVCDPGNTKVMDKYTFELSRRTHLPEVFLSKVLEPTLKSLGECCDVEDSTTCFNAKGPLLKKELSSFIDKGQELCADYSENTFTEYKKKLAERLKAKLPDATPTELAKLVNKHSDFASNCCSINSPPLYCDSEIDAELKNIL

[7] = target: B3; assay: MST, NT-647-labelled DBP (50 nM) mixed with 25(OH)VD3 (37.8 nM), megalin M2 titrated
[8] = target: T5, complex of vitamin D binding protein with the 3C-epimer of 25(OH)D3 (human, UniProt P02774 17-474); assay: microscale thermophoresis; NT-647-labelled DBP (50 nM) mixed with the vitamin D metabolite (37.8 nM), here 3epi25(OH)VD3; purified megalin M2 titrated
T5 construct: Same protein as m4, occupied by the epimer; also called DBP:3-epi-25(OH)D3
T5 sequence (looked up): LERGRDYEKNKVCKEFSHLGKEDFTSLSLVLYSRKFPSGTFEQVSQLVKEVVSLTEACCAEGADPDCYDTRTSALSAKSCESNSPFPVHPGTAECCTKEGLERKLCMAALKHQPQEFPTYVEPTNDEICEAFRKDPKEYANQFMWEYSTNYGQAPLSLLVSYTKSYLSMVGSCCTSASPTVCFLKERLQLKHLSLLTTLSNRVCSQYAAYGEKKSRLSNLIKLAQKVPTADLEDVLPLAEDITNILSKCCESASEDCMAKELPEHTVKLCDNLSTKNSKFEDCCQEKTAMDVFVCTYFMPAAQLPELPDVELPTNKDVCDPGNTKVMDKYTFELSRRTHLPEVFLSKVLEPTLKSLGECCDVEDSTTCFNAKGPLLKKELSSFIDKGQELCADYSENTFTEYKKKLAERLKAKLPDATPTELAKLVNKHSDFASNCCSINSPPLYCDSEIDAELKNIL

[9] = target: B2; assay: MST, NT-647-labelled DBP (50 nM), megalin fragment titrated, absence of 25-OH vitamin D3; microscale thermophoresis; NT-647-labelled DBP, purified soluble M2 titrated 0.488-1000 nmol/L; absence of 25-OH vitamin D3

Human C1q, sequence (P02745 23-245 limits assumed, chain 1 of 3): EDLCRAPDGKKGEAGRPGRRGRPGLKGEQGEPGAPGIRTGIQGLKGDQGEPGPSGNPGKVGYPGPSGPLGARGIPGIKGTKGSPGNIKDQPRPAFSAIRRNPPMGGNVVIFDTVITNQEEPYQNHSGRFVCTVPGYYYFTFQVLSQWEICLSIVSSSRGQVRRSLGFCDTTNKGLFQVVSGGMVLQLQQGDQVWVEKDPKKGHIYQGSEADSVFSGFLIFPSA
Human C1q, sequence (P02746 28-253 limits assumed, chain 2 of 3): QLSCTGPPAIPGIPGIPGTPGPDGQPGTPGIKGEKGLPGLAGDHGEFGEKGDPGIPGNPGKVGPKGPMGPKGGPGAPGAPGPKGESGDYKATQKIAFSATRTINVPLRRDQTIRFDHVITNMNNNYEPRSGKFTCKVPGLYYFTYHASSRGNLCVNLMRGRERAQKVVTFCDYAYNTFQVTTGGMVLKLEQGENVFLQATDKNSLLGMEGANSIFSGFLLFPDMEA
Human C1q, sequence (P02747 29-245 limits assumed, chain 3 of 3): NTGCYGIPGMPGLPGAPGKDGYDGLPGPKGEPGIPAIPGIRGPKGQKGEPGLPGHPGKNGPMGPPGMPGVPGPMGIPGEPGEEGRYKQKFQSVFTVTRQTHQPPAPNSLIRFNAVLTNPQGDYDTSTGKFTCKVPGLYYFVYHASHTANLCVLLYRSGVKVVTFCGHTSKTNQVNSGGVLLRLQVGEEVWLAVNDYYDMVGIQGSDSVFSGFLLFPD
T2 sequence (P02768 25-609 limits assumed): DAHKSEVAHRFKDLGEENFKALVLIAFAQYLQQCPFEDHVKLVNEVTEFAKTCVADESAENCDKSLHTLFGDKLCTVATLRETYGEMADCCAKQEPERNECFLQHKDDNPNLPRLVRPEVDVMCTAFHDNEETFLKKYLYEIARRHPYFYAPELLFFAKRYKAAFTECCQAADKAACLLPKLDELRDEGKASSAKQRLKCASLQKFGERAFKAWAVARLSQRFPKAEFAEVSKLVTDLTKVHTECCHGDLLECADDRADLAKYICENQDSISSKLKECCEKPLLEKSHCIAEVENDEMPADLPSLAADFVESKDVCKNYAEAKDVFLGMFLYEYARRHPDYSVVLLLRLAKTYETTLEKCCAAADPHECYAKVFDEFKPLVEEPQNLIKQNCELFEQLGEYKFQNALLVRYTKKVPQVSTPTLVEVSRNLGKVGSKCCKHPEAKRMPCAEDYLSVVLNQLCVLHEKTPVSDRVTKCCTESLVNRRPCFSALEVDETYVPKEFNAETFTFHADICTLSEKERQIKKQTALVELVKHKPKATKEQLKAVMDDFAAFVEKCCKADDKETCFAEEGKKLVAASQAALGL

- Kd [1]: 18.1 nM
B1: DBP-1,25(OH)VD3 complex (ligand)
chain: LERGRDYEKNKVCKEFSHLGKEDFTSLSLVLYSRKFPSGTFEQVSQLVKEVVSLTEACCAEGADPDCYDTRTSALSAKSCESNSPFPVHPGTAECCTKEGLERKLCMAALKHQPQEFPTYVEPTNDEICEAFRKDPKEYANQFMWEYSTNYGQAPLSLLVSYTKSYLSMVGSCCTSASPTVCFLKERLQLKHLSLLTTLSNRVCSQYAAYGEKKSRLSNLIKLAQKVPTADLEDVLPLAEDITNILSKCCESASEDCMAKELPEHTVKLCDNLSTKNSKFEDCCQEKTAMDVFVCTYFMPAAQLPELPDVELPTNKDVCDPGNTKVMDKYTFELSRRTHLPEVFLSKVLEPTLKSLGECCDVEDSTTCFNAKGPLLKKELSSFIDKGQELCADYSENTFTEYKKKLAERLKAKLPDATPTELAKLVNKHSDFASNCCSINSPPLYCDSEIDAELKNIL
modifications: The protein carries the red fluorescent dye NT-647 (positions not stated). 1,25(OH)2 vitamin D3 is bound non-covalently and cannot be written in letters. It is a natural glycoprotein.
notes: also called DBP:1,25(OH)2D3

Binder: B2
- binding result [2]: no binding (tested: DBP 0,5 µg)

Binder: B3
- binding result [2]: no binding (tested: DBP 0,5 µg with VD3 0,2 µg)

- binding result [3]: binds
B4: Human RAP (ligand, UniProt P30533 35-357, looked up)
chain: YSREKNQPKPSPKRESGEEFRMEKLNQLWEKAQRLHLPPVRLAELHADLKIQERDELAWKKLKLDGLDEDGEKEARLIRNLNVILAKYGLDGKKDARQVTSNSLSGTQEDGLDDPRLEKLWHKAKTSGKFSGEELDKLWREFLHHKEKVHEYNVLLETLSRTEEIHENVISPSDLSDIKGSVLHSRHTELKEKLRSINQGLDRLRRVSHQGYSTEAEFEEPRVIDLWDLAQSANLTDKELEAFREELKHFEAKIEKHNHYQKQLEIAHEKLRHAESVGDGERVSRSREKHALLEGRTKELGYTVKKHLQDLSGRISRARHNEL

Binder: B5
- Kd [4]: 23.7 nM
- binding result (Human C1q): binds
- binding result (Human Albumin-His-tag): binds
- Kd [5]: 171 nM
- Kd [6]: 160 nM
- Kd [7]: 33.7 nM
- Kd [8]: 5.86 nM
- Kd [9]: 134 nM
